Common to all, as to type: biochemical
Test [1] has as its target T1, recombinant light chain enterokinase (Bos taurus, UniProt P98072).
T1 construct: enterokinase cleavage using 30 nM recombinant light chain enterokinase (Novagen); purchased Novagen, Madison, Wis
The test can be described thus: Cleavage site test: digestion of synthetic test peptides to completion, HPLC and mass spectroscopy. Particulars: for extent of enterokinase digestion: 36-48 hrs with 20U enterokinase, HPLC; for recovered product, product peak 1 / recovered product, product peak 2: 60 to 100 μg peptide digested to completion (36-48 hrs) with 20U enterokinase, reverse phase HPLC, electrospray MS. On the procedure: To further test the predicted cleavage site as well as the rates and extent of cleavage, seven test peptides shown in Table 6 were chemically synthesized, contacted with enterokinase, and analyzed by HPLC and mass spectrometric analysis.
To test the predicted cleavage site, i.e., following the acid-base dipeptide motif, 60 to 100 μg of each test peptide was digested to completion (36-48 hrs) with 20U of recombinant light chain enterokinase (Novagen) and analyzed by reverse phase HPLC. Product peaks were eluted with a water/acetonitrile (H2O/ACN) gradient and identified by electrospray mass spectroscopy.
“% ACN” estimates the position in the H2O/Acetonitrile gradient at which the indicated cleavage fragment eluted. The expected product peaks for GDDDDK (residue 1-6 SEQ ID NO:197) and NKAKDR (residues 1-6, SEQ ID NO:201) were not detected by HPLC, but the cleavage site could be determined from analyzing the alternate product peak, i.e., the peptide to the C-terminal side of the cleavage site.

For test [2], the target named is T1, recombinant light chain enterokinase. Briefly: Relative rate of cleavage of synthetic peptides by HPLC. The conditions noted are these: about 500 μM peptide; for cleavage rate compared with the other peptides (in words): 50 nM enterokinase; for Cleavage Rate: 50 nM recombinant light chain enterokinase. On the procedure: Peptides were digested with enterokinase and aliquots tested at timed intervals by HPLC to quantitate the extent of cleavage. For each test peptide, about 500 μM of peptide were digested with 50 nM of recombinant light chain enterokinase. The seven synthetic peptides were compared with a commercially available standard EK cleavage substrate, GDDDDK-β-naphthylamine (GDDDDK-βNA, SEQ ID NO:203; from BACHEM, King of Prussia, Pa.), having a fluorescent leaving group that increases in fluorescence when it is cleaved.

The target of the next test is T2, enterokinase (Bos taurus, UniProt P98072).
T2 construct: provide a substrate specifically recognized and cleaved by recombinant light chain enterokinase
Briefly: Substrate competition with reference peptide GDDDDK-βNA. The conditions noted are these: for reference peptide rate (Vb): rate of reference peptide GDDDDK-βNA 250 μM in competition with the test peptide 250 μM; for ratio (Va/Vb): test peptide cleavage rate to reference peptide cleavage rate, 250 μM each; for ratio kcat/Km, times greater than that of the reference peptide: tested in competition at 250 μM. The procedure:
Rates of substrate hydrolysis depends on several factors, namely, concentration of enzyme and substrate, Km (Michaelis constant) values, and kcat (catalytic rate constant) values. One way to compare the relative efficiencies with which a protease hydrolyses two substrates (a and b) is to simultaneously incubate both substrates in a single reaction with the enzyme and measure the rates of product formation for each (Va and Vb). If the total product formation is low (<10%), the starting concentrations of the two competing substrates are the same, and the reaction is performed at steady-state: Va/Vb=(kcat/Km)a/(kcat/Km)b Relative ratios of kcat/Km can be determined from relative rates of substrate hydrolysis.
To compare the relative efficiency of hydrolysis by enterokinase, reference peptide (GDDDDK-βNA, 250 μM, SEQ ID NO:203) was incubated simultaneously with one of the test peptides (250 μM), treated with enterokinase, and the relative rate of product formation measured. The products were quantitated by HPLC and initial cleavage rates calculated.

For test [3], the target named is T1, recombinant light chain enterokinase. Briefly: Relative rate of cleavage of synthetic peptides by HPLC. The conditions noted are these: relative to GDDDDK-βNA; peptides tested individually at 500 μM.
For test [4] the target is unchanged. Briefly: Phage ELISA kinetics of enterokinase cleavage of phage isolates. The conditions noted are these: streptavidin-bound phage, 30 nM or 130 nM enterokinase, 30 minutes. The procedure: FIG. 1 and FIG. 2 show the time course of enterokinase cleavage of phage isolates from five rounds of screening a substrate phage library. The tested isolates were those having recurring sequences among 90 sequenced isolates. The isolates are tested in comparison with an isolate (5-H11) containing the known enterokinase cleavage sequence DDDDK and an unselected phage displaying a polypeptide not recognized by enterokinase.
Phage displaying each of the sequences shown in Table 5 were tested individually for kinetics of enterokinase cleavage using a phage ELISA. Streptavidin-bound phage were treated with either 30 nM or 130 nM enterokinase for 30 minutes. The time courses of phage release are shown in FIG. 1 (release at 30 nM EK) and FIG. 2 (release at 130 nM EK). Phage from the unselected substrate library were used as a control, i.e., isolate 5-F08. (SEQ ID NO:196).
A general note: ELISA stands for enzyme-linked immunosorbent assay.

Marks after values point to notes of the source that are not given here.

Experimental findings from patent publication US6906176B2, “Enterokinase cleavage sequences” (Dyax Corp., priority 2000, dated 2005) are described below.

T2 sequence (P98072 801-1035 limits assumed): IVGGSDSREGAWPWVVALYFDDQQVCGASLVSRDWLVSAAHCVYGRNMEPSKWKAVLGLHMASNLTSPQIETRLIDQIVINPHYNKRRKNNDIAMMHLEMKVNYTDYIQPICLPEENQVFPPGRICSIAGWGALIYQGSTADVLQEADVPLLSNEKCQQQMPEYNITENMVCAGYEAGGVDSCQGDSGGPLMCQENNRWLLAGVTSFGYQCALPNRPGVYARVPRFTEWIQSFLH
T1 sequence (P98072 801-1035 limits assumed): as above

With “AVLSNVMFT (AVLSNVMFI; negative control in EK cleavage experiment) [AVLSNVMFII, negative control test peptide, reference compound]”, the “extent of enterokinase digestion” value in test [1] was “not cleaved at all”; in test [1] (listed as negative control peptide), “No cleavage”.

As for “DINDDRSLF (synthetic enterokinase cleavage sequence)”, in test [1], the “recovered product, product peak 1” value is “DINDDR” and the “recovered product, product peak 2” value is reported as “SLF”. Moreover, in test [2], the “cleavage rate compared with the other peptides (in words)” value is listed as “cleaved significantly more rapidly than the two control peptides” and the “Cleavage Rate” value is on record as 1/43. For the same substance, in the test with enterokinase, the “reference peptide rate (Vb)” value amounted to 0.006; the “ratio (Va/Vb)” value is 30; the “ratio kcat/Km, times greater than that of the reference peptide” value was found to be 30. The “rate relative to standard substrate” value in test [3] was determined as 3.1.

Consider “DINDDRSLFSESS (synthetic enterokinase cleavage sequence) [Isolate 5-H04, round 5 phage isolate]”, for which, in test [4], the “enterokinase cleavage rate of phage isolate (phage release)” value is “most readily cut”.

Consider “GDDDDK-β-naphthylamine [GDDDDK-βNA, reference compound]”, for which, in test [2], the “cleavage rate compared with the other peptides (in words)” value was “cleaved at nearly equal rates and more rapidly than the remaining three peptides tested”; the “Cleavage Rate” value was determined as 0.46 nmol/min. In test [3], the “rate relative to standard substrate” value was “(1.0)”.

As for “GDDDDKIYV (natural enterokinase cleavage sequence) [reference compound]”, in test [1], the “recovered product, product peak 2” value is “IYV”. Moreover, in test [2], the “cleavage rate compared with the other peptides (in words)” value is “cleaved at nearly equal rates and more rapidly than the remaining three peptides tested”; the “Cleavage Rate” value was 0.34 nmol/min. In the test with enterokinase, the “reference peptide rate (Vb)” value was 0.027 and the “ratio (Va/Vb)” value was 1.0. In test [3], the “rate relative to standard substrate” value turned out to be 0.7.

Consider “GNYTDRMFI (synthetic enterokinase cleavage sequence)”, for which, in test [1], the “recovered product, product peak 1” value was “GNYTDR” and the “recovered product, product peak 2” value is “MET”. In addition, in test [2], the “cleavage rate compared with the other peptides (in words)” value is given as “cleaved significantly more rapidly than the two control peptides” and the “Cleavage Rate” value is 0.81 nmol/min. In the test with enterokinase, the “reference peptide rate (Vb)” value is 0.011; the “ratio (Va/Vb)” value was determined as 3.5; the “ratio kcat/Km, times greater than that of the reference peptide” value was determined as 3.5. Further, in test [3], the “rate relative to standard substrate” value is 1.8.

For the substance “GNYTDRRFI (synthetic enterokinase cleavage sequence)”, in test [1], the “recovered product, product peak 1” value is on record as “GNYTDR” and the “recovered product, product peak 2” value is listed as “RFI”. The “Cleavage Rate” value in test [2] was 0.18 nmol/min. The “rate relative to standard substrate” value in test [3] is 0.4.

Regarding “GNYTDRYFI (commercial synthetic enterokinase cleavage substrate)”, in test [1], the “recovered product, product peak 1” value was “GNYTDR” and the “recovered product, product peak 2” value is recorded as “YFI”. The “Cleavage Rate” value in test [2] was determined as 0.24 nmol/min. The “rate relative to standard substrate” value in test [3] was 0.5.

Consider “MGDDDDKIYVYKT (synthetic enterokinase cleavage sequence) [Isolate 5-H11, reference compound]”, for which the “enterokinase cleavage rate of phage isolate (phage release)” value in test [4] is given as “slower than for at least three of the other isolates”.

For the substance “NKAKDRMFI (synthetic enterokinase cleavage sequence)”, the “recovered product, product peak 2” value in test [1] is given as “MFI”. The “Cleavage Rate” value in test [2] is given as ~0.26* nmole/min. The “rate relative to standard substrate” value in test [3] was 0.6.
